This is an account of results in PMC4635314, “Insights into Collagen Uptake by C-type Mannose Receptors from the Crystal Structure of Endo180 Domains 1–4” (Structure(London, England:1993), 2015).

The target in assay [1] is T1, type I collagen (native, triple-helical; rat tail) (rat, UniProt P02454 152-1207; P02466 86-1125).
T1 construct: collagen alpha-1(I) chain, rat; collagen alpha-2(I) chain, rat; also called native collagen; rat-tail type I collagen; source: bought: Sigma (rat-tail type I collagen)
T1 sequence (P02454 152-1207, chain 1 of 2): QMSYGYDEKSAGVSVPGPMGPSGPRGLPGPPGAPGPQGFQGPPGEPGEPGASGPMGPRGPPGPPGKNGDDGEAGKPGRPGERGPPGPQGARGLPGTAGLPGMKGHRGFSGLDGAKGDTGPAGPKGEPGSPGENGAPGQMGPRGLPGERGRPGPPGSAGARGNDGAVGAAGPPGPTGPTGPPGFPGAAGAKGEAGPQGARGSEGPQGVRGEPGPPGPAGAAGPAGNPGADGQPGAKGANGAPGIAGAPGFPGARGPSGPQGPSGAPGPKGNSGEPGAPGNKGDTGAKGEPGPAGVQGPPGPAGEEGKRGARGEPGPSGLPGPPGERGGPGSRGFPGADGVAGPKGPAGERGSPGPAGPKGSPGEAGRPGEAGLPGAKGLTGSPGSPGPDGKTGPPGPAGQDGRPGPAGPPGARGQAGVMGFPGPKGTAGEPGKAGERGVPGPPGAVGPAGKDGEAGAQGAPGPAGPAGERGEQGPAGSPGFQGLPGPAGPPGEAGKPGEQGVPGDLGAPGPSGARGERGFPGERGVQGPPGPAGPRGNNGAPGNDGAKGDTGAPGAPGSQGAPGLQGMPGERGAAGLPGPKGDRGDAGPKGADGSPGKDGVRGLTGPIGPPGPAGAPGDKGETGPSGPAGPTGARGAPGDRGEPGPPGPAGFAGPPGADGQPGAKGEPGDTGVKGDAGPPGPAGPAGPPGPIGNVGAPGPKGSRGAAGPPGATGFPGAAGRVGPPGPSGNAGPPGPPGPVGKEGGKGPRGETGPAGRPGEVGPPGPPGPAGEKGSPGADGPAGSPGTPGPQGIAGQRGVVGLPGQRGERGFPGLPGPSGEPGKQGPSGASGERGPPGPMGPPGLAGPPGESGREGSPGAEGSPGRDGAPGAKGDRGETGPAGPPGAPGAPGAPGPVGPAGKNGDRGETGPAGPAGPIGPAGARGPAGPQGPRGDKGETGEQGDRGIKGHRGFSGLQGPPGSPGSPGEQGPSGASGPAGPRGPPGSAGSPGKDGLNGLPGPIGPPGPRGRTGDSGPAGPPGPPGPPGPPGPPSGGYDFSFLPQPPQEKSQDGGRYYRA
T1 sequence (P02466 86-1125, chain 2 of 2): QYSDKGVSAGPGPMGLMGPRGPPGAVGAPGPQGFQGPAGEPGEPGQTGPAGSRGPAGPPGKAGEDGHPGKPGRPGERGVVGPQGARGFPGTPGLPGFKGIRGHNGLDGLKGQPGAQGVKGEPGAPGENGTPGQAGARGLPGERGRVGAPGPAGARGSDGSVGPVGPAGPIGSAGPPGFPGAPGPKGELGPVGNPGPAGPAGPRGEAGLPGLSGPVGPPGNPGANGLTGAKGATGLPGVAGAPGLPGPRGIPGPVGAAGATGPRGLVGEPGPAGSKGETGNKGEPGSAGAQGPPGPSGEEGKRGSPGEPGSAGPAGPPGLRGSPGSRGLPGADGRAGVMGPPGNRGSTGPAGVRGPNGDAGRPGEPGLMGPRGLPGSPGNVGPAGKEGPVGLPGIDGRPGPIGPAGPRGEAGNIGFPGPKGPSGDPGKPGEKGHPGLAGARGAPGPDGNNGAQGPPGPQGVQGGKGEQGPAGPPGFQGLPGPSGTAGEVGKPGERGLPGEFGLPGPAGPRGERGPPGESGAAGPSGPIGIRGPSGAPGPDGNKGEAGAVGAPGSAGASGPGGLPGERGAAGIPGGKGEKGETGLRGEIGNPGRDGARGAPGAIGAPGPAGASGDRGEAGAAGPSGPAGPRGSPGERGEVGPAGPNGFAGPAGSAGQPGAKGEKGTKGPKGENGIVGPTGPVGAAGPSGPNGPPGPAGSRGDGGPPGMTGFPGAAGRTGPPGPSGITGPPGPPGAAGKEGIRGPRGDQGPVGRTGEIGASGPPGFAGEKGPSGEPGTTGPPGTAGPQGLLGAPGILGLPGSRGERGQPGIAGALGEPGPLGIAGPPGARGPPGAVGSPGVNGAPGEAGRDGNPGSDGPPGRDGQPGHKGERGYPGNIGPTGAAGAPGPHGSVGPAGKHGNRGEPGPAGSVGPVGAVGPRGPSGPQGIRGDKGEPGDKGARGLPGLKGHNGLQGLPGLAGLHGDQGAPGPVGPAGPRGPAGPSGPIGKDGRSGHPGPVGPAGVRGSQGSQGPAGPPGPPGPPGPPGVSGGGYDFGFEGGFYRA
The experiment in a line: ELISA; solid-phase binding assay: collagen or gelatin coated at 10 μg/ml on Nunc MaxiSorp plates; Fc-tagged Endo180 proteins in PBS with 0.1 mg/ml κ-casein and 0.05% Tween 20 added for 2 hr (titration, or fixed 1 μM in Figure 6A); detected with anti-human IgG-HRP, 492 nm; single-site fit. The conditions noted are these: both partners purified.

Assay [2] concerns the target T2, gelatin (heat-denatured rat-tail type I collagen) (rat, UniProt P02454 152-1207; P02466 86-1125).
T2 construct: collagen alpha-1(I) chain, rat, heat-denatured; collagen alpha-2(I) chain, rat, heat-denatured; Same chains as m3 but denatured (unfolded single chains) before coating or coupling; also called denatured collagen; source: bought: Sigma (rat-tail type I collagen), 1 mg/ml in 100 mM acetic acid heated to 67°C for 30 min
The assay is described as above. The conditions noted are these: both partners purified.

T2 sequence (P02454 152-1207, chain 1 of 2): as the sequence (P02454 152-1207, chain 1 of 2) above
T2 sequence (P02466 86-1125, chain 2 of 2): as the sequence (P02466 86-1125, chain 2 of 2) above

B1: Endo180 D1-4-Fc (dimeric Fc-tagged Endo180 domains 1-4) (Fc fusion)
chain: APLADAALPEPNVFLIFSHGLQGCLEAQGGQVRVTPACNTSLPAQRWKWVSRNRLFNLGTMQCLGTGWPGTNTTASLGMYECDREALNLRWHCRTLGDQLSLLLGARTSNISKPGTLERGDQTRSGQWRIYGSEEDLCALPYHEVYTIQGNSHGKPCTIPFKYDNQWFHGCTSTGREDGHLWCATTQDYGKDERWGFCPIKSNDCETFWDKDQLTDSCYQFNFQSTLSWREAWASCEQQGADLLSITEIHEQTYINGLLTGYSSTLWIGLNDLDTSGGWQWSDNSPLKYLNWESDQPDNPSEENCGVIRTESSGGWQNRDCSIALPYVCKKKPNATAEPTPPDRWANVKVECEPSWQPFQGHCYRLQAEKRSWQESKKACLRGGGDLVSIHSMAELEFITKQIKQEVEELWIGLNDLKLQMNFEWSDGSLVSFTHWHPFEPNNFRDSLEDCVTIWGPEGRWNDSPCNQSLPSICKKAGQLSQG
modifications: natively glycosylated (predicted N-linked sites Asn69, Asn102, Asn140, Asn364, Asn497)
Consider B1, for which the figures for the Kd in assay [1] and in assay [2] were 2.5 ± 0.25 µM and 420 ± 30 nM, respectively.

B2: Endo180 D3-4-Fc (Fc fusion, human)
chain: APLAKSNDCETFWDKDQLTDSCYQFNFQSTLSWREAWASCEQQGADLLSITEIHEQTYINGLLTGYSSTLWIGLNDLDTSGGWQWSDNSPLKYLNWESDQPDNPSEENCGVIRTESSGGWQNRDCSIALPYVCKKKPNATAEPTPPDRWANVKVECEPSWQPFQGHCYRLQAEKRSWQESKKACLRGGGDLVSIHSMAELEFITKQIKQEVEELWIGLNDLKLQMNFEWSDGSLVSFTHWHPFEPNNFRDSLEDCVTIWGPEGRWNDSPCNQSLPSICKKAGQLSQG
notes: Endo180 (uPARAP), human, domains 3-4 (CTL1, CTL2), residues 231-513 of UniProt Q9UBG0; also called D3-4-Fc construct; source: HEK293 c18, transfected, secreted into serum-free medium, purified (protein A); not shown: Fc (IgG2), C-terminal, kept
Take B2: the figures for the Kd in assay [1] and in assay [2] were 3.7 ± 0.43 µM and 2200 ± 150 nM, respectively.

As a reminder, the Kd is the free concentration of one partner at which half of the binding sites on the other are occupied at equilibrium, for simple one-to-one binding. Lower therefore signals higher affinity.
